The supplement of paper PMC10126150
± gives the standard deviation of the averaged measurements.

System: ATP
Test: switch fluorescence ratio, 500 uM ATP over buffer (Cy3 cluster intensity, sum of 5 cycles each) (fold (ratio)); higher = stronger signal-on switching upon ATP binding; sequences stand for … in TCGTCGGCAGCGTCAGATGTGTATAAGAGACAGTTTTTTTTTTTTTTTTTTTTTTTTT…TC
Conditions: aptamer strand: ATP DNA aptamer (quencher-CACCTGGGGGAGTATTGCGGAGGAAGG + anchor), 100 nM annealed; ATP concentration: 500 uM
Method in brief: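 Cy3-labelled switching-strand clusters on a modified Illumina MiSeq flow-cell were annealed to 100 nM quencher-labelled ATP aptamer, imaged in selection buffer, then imaged after 15 min with 500 uM ATP at 22 °C. Five buffer/ATP cycles ran, with NaOH stripping and re-annealing between them. The fluorescence ratio is summed target-cycle over summed buffer-cycle Cy3 intensity per cluster, averaged per switch-domain sequence. Clusters outside 100-1000 RFU were excluded.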
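Also: ATP exposure 15 min at 22 °C before imaging.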

Sequence	switch fluorescence ratio
TAGGGGGCGC	1.02 ± 0.039
TAGGGGTCGT	1 ± 0.02
TAGGGGTTCA	1.013 ± 0.002
TAGGGTAGTG	1.01 ± 0.021
TAGGGTATTT	0.987 ± 0.023
TAGGGTCATA	1.04 ± 0.077
TAGGGTCTGG	0.991 ± 0.04
TAGGGTGAGC	1.02 ± 0.019
TAGGGTGTGC	1 ± 0.037
TAGGGTGTTT	0.993 ± 0.034
TAGGGTTCAG	0.993 ± 0.029
TAGGGTTGTA	0.991 ± 0.04
TAGGTAATAT	1.02 ± 0.036
TAGGTATTGA	0.987 ± 0.024
TAGGTCCTTT	1.02 ± 0.02
TAGGTCGCCG	1 ± 0.044
TAGGTGACGG	0.991 ± 0.021
TAGGTGCCTG	1.07 ± 0.03
TAGGTGCTGG	1.04 ± 0.07
TAGGTGGGGA	1.01 ± 0.023
TAGGTGGGTT	0.982 ± 0.041
TAGGTTAAAG	1.01 ± 0.027
TAGGTTATGC	0.974 ± 0.036
TAGGTTGTCA	1.04 ± 0.024
TAGGTTGTCG	0.973 ± 0.077

Sequence	switch fluorescence ratio
TAGGTTTCAT	1.01 ± 0.014
TAGGTTTTGG	0.989 ± 0.035
TAGGTTTTTC	1.02 ± 0.078
TAGTAAATAT	1.006 ± 0.0041
TAGTAAGAGG	1 ± 0.013
TAGTAGAAAG	1.002 ± 0.0032
TAGTAGACGA	0.982 ± 0.034
TAGTAGCTTT	1.2 ± 0.31
TAGTAGGAGG	0.9721 ± 0.0061
TAGTAGGCGC	0.968 ± 0.035
TAGTAGTGGG	1.01 ± 0.022
TAGTAGTTGT	1 ± 0.013
TAGTATAGGC	1.14 ± 0.17
TAGTATAGTT	0.98 ± 0.016
TAGTATTTAG	1.024 ± 0.00096
TAGTCATTAC	1.12 ± 0.12
TAGTCCGGGC	1 ± 0.076
TAGTCTATTT	0.977 ± 0.02
TAGTCTGTGG	0.993 ± 0.033
TAGTGAAAGT	1.007 ± 0.0071
TAGTGAGAGC	1 ± 0.058
TAGTGAGGCT	0.996 ± 0.01
TAGTGAGGGG	0.979 ± 0.031
TAGTGATTAA	1.02 ± 0.044
TAGTGATTGG	1 ± 0.052

Sequence	switch fluorescence ratio
TAGTGCCAGA	1.01 ± 0.012
TAGTGCGATT	1.02 ± 0.015
TAGTGCTTTT	1.01 ± 0.025
TAGTGGTTTT	0.975 ± 0.02
TAGTGTGGGA	1 ± 0.043
TAGTGTGTAT	0.9516 ± 0.0088
TAGTGTGTGA	1.02 ± 0.014
TAGTTACACA	1.04 ± 0.035
TAGTTAGAAG	1.08 ± 0.13
TAGTTCACGG	0.9991 ± 0.0073
TAGTTCGACT	1.004 ± 0.0091
TAGTTCGTAT	0.986 ± 0.0099
TAGTTCTGAG	0.998 ± 0.006
TAGTTGAGAA	0.9851 ± 0.0075
TAGTTGCTTG	1.03 ± 0.054
TAGTTGGCAG	0.9773 ± 0.0054
TAGTTGGCCC	1.006 ± 0.0034
TAGTTGGGAG	0.973 ± 0.012
TAGTTGTAAG	0.994 ± 0.02
TAGTTTATGT	1.012 ± 0.0056
TAGTTTTAGA	0.98478 ± 9.2e-05
TAGTTTTTCA	1.01 ± 0.039
TAGTTTTTGG	0.994 ± 0.032
TATAAAAGGC	0.978 ± 0.045
TATAAACTGT	0.993 ± 0.015

Sequence	switch fluorescence ratio
TATAAAGAGA	0.9978 ± 0.0057
TATAAAGCGG	1.03 ± 0.048
TATAAAGTTG	1.01 ± 0.062
TATAACGGGA	1.05 ± 0.027
TATAAGAGTT	1.02 ± 0.035
TATAAGTTTT	0.9823 ± 0.0096
TATAATACTT	1.026 ± 0.0038
TATAATGTGG	0.967 ± 0.015
TATAATGTTT	1.02 ± 0.048
TATAATTGGT	0.9616 ± 0.007
TATACCATGG	0.971 ± 0.046
TATACCATTA	0.997 ± 0.051
TATACCCTTT	1 ± 0.052
TATACGACTT	1.03 ± 0.029
TATACGCTTG	1.001 ± 0.0079
TATACGGGGG	0.992 ± 0.049
TATACGTTTC	1.04 ± 0.028
TATACTGTAA	1.14 ± 0.031
TATAGAGGG	0.969 ± 0.011
TATAGCCGGG	1 ± 0.069
TATAGGACTA	1.01 ± 0.014
TATAGGCTTC	1 ± 0.023
TATAGGGTCA	0.979 ± 0.031
TATAGGTCGG	0.9695 ± 0.0057
TATAGGTTTG	1.01 ± 0.042

Sequence	switch fluorescence ratio
TATAGTGATG	1.01 ± 0.019
TATAGTTTGC	0.969 ± 0.026
TATATACGTT	1.04 ± 0.026
TATATAGGAA	1.018 ± 0.0064
TATATATAAA	1.09 ± 0.087
TATATCATTG	0.965 ± 0.011
TATATGAATA	1.006 ± 0.0023
TATATGAGAG	0.973 ± 0.017
TATATGGAGG	0.956 ± 0.032
TATATGTAGA	1.03 ± 0.011
TATATGTGTG	0.9661 ± 0.0073
TATATTATTA	0.985 ± 0.031
TATATTGACC	1.04 ± 0.03
TATATTGGAT	0.985 ± 0.025
TATATTGGGC	0.968 ± 0.049
TATATTTGGG	0.998 ± 0.034
TATATTTGGT	0.996 ± 0.039
TATATTTTTA	0.9819 ± 0.0079
TATCAAAGGC	1.014 ± 0.0082
TATCACCATA	1.04 ± 0.079
TATCACCGGC	1.09 ± 0.031
TATCACGGTA	1.176 ± 0.011
TATCAGAGGG	1.02 ± 0.023
TATCAGGGCT	0.999 ± 0.057
TATCAGGGGA	1 ± 0.075

Sequence	switch fluorescence ratio
TATCAGGGGT	1.08 ± 0.073
TATCATAAGT	1.016 ± 0.0077
TATCATCTTT	1.01 ± 0.054
TATCATTAGA	1.01 ± 0.014
TATCATTCGG	1.01 ± 0.043
TATCCTATTA	1.003 ± 0.0036
TATCCTGGAC	1.05 ± 0.045
TATCGAAGTT	1.013 ± 0.0018
TATCGACAAT	1.37 ± 0.47
TATCGAGTGG	0.979 ± 0.058
TATCGCGGTG	1.005 ± 0.005
TATCGCTCAT	0.9765 ± 0.0073
TATCGGATTC	1.02 ± 0.02
TATCGGGTGT	1.11 ± 0.092
TATCGGTTCG	0.9992 ± 0.0076
TATCGTAGTG	0.98 ± 0.038
TATCGTCGGA	0.9823 ± 0.0035
TATCGTCTGG	0.981 ± 0.015
TATCGTTCTC	0.989 ± 0.011
TATCGTTGGA	1.03 ± 0.018
TATCTCTTTT	1.01 ± 0.041
TATCTGGGCC	1.03 ± 0.011
TATCTGTGCT	0.994 ± 0.019
TATCTTACCA	0.988 ± 0.032
TATCTTGGGC	0.996 ± 0.083

Sequence	switch fluorescence ratio
TATGAAAGGA	1.011 ± 0.0047
TATGAAGAGT	1.01 ± 0.017
TATGAATTGT	1.014 ± 0.01
TATGACAGGA	0.995 ± 0.011
TATGAGAGAG	1.03 ± 0.02
TATGAGATCG	1.03 ± 0.069
TATGAGGATG	1.01 ± 0.031
TATGAGGGGA	1.02 ± 0.032
TATGAGTGAC	1.02 ± 0.016
TATGAGTGGG	0.976 ± 0.018
TATGATATGC	1.032 ± 0.0011
TATGATGCTC	0.998 ± 0.043
TATGATTGGC	0.972 ± 0.061
TATGCAACTT	0.993 ± 0.015
TATGCAGTA	1.3 ± 0.038
TATGCCCAGC	1 ± 0.029
TATGCCTTTT	1.008 ± 0.0042
TATGCGGGCG	0.939 ± 0.072
TATGCTAACT	1 ± 0.051
TATGCTTGA	0.986 ± 0.036
TATGCTTGGT	1.015 ± 0.003
TATGGAAGAG	0.977 ± 0.054
TATGGAAGCC	0.982 ± 0.034
TATGGAATGC	1.35 ± 0.076
TATGGACTAG	1.01 ± 0.025

Sequence	switch fluorescence ratio
TATGGAGAAC	1.01 ± 0.035
TATGGAGGGG	0.991 ± 0.032
TATGGCAACC	1.03 ± 0.061
TATGGCAAGG	1.03 ± 0.051
TATGGCCAGC	0.994 ± 0.047
TATGGCGGGG	1.02 ± 0.03
TATGGGGGGG	0.994 ± 0.038
TATGGGGGTT	0.987 ± 0.022
TATGGGTCTC	0.973 ± 0.049
TATGGGTGCC	0.9771 ± 0.0042
TATGGGTTCT	1 ± 0.031
TATGGTAGGC	0.9857 ± 0.0042
TATGGTCGC	1.03 ± 0.026
TATGGTGC	1.06 ± 0.015
TATGTAAACA	1 ± 0.025
TATGTATTTT	1.02 ± 0.055
TATGTCAGAG	1.01 ± 0.039
TATGTCGGCC	0.975 ± 0.069
TATGTGAACA	0.991 ± 0.025
TATGTGACGA	1 ± 0.026
TATGTGCTTG	0.991 ± 0.021
TATGTGGAGT	0.9924 ± 0.0089
TATGTGGCGG	0.974 ± 0.022
TATGTGGGGA	1.02 ± 0.027
TATGTGGGGG	1 ± 0.016
